B1: T2a: NBD1-specific CFTR-stabilizing nanobody, SEQ ID NO:3, binds epitope 1 (protein)
VHH: QVQLQESGGGLVQAGGSLRLSCAASGSIFRIDAMGWYRQAPGKQRELVAHSTSGGSTDYADSVKGRFTISRDNAKNTVYLQMNSLKPEDTAVYYCNADVRTRWYASNNYWGQGTQVTVSS
modifications: T2a Nanobody amino acid sequence
B2: G3a: non-stabilizing nanobody, SEQ ID NO:50, recognizes the structurally diverse region of NBD1 (protein)
VHH: QVQLQESGGGLVQAGGSLRLSCTASGRAFSWYVMGWFRQAPGKEREFVATVSGNGSRRDYADSVKGRFTISRDNAKNTVYLQMNSLKPEDTAVYYCAASSTYYYTDPEKYDYWGQGTQVTVSS
modifications: G3a Nanobody
B3: D12: NBD1-specific CFTR-stabilizing nanobody, SEQ ID NO:2, binds epitope 1 (protein)
VHH: QVQLQESGGGLVQAGSSLRLACAATGSIRSINNMGWYRQAPGKQRGMVAIITRVGNTDYADSVKGRFTISRDNAKNTVYLQMNSLKPEDTATYYCHAEITEQSRPFYLTDDYWGQGTQVTVSS
modifications: D12 Nanobody amino acid sequence
B4: T8: nanobody, SEQ ID NO:7, binds epitope 2 including F508, stabilizes WT CFTR but not F508del (protein)
VHH: QVQLQESGGGLVQPGGSLRLSCAASGSTSSINAMGWYRQAPGKQREPVAISSSGGDTRYAEPVKGRFTISRDNAQNKVYLQMNSLKPEDTAVYYCWLNWGRTSVNSWGQGTQVTVSS
modifications: T8 Nanobody amino acid sequence
B5: T27: NBD1-specific CFTR-stabilizing nanobody, SEQ ID NO:4, binds epitope 1 (protein)
VHH: QVQLQESGGGLEQPGGSLRLSCATSGVIFGINAMGWYRQAPGKQRELVATFTSGGSTNYADFVEGRFTISRDNAKNTVYLQMNGLRPEDTAVYYCHATVVVSRYGLTYDYWGQGTQVTVSS
modifications: T27 Nanobody amino acid sequence

Molecular target: wt-CFTR (Homo sapiens, UniProt P13569)
Test: CFTR pull-down from solubilized BHK-21 cells with immunoblot
Assay type: binding
Set-up: expressed in transfected cells
Details: immunoblot with mAb 596
Procedure: Human wt-CFTR was extracted from BHK-21 cells pellet by solubilization with 1% DMNG in PBS with proteases inhibitors for 1 h at 4° C. The cells debris were removed by centrifugation (16,000×g for 30 min at 4° C.). Supernatant was diluted 10 times in PBS with proteases inhibitors plus 10 mM imidazole and incubated at least for 30 min on HisPur Ni-NTA Resin (Thermo Scientific) pre-loaded with nanobodies. Resin was washed with 40 column volumes of PBS with 300 mM NaCl. Nanobodies were eluted with 200 mM imidazole in PBS. Presence of CFTR in each sample was detected by SDS-PAGE and immuno-blotting.
Cell extracts were separated by SDS-PAGE on 7.5% polyacrylamide gel and transferred to nitrocellulose membrane (Bio-Rad) for immunodetection. After blocking for 1 h with 5% bovine serum albumin (BSA) in Tris-buffered saline added 0.05% Tween-20 (TBST), CFTR was detected using monoclonal antibody mAb 596, IgG2b (CFTR Antibody Distribution Program, dilution 1:46) for 1 h in blocking buffer. Blot was washed 3 times 5 min and incubated with anti-mouse-HRP antibody (Millipore, catalogue number: AP308P, 0.2 μg/ml) for 1 h in TBST. Membrane was washed 3 times for 5 min. CFTR was visualized by chemiluminescence using Luminata Forte Western HRP Substrate (Millipore) and detected with ImageQuant 400 (GE Healthcare).

wt-CFTR, sequence (P13569 whole entry): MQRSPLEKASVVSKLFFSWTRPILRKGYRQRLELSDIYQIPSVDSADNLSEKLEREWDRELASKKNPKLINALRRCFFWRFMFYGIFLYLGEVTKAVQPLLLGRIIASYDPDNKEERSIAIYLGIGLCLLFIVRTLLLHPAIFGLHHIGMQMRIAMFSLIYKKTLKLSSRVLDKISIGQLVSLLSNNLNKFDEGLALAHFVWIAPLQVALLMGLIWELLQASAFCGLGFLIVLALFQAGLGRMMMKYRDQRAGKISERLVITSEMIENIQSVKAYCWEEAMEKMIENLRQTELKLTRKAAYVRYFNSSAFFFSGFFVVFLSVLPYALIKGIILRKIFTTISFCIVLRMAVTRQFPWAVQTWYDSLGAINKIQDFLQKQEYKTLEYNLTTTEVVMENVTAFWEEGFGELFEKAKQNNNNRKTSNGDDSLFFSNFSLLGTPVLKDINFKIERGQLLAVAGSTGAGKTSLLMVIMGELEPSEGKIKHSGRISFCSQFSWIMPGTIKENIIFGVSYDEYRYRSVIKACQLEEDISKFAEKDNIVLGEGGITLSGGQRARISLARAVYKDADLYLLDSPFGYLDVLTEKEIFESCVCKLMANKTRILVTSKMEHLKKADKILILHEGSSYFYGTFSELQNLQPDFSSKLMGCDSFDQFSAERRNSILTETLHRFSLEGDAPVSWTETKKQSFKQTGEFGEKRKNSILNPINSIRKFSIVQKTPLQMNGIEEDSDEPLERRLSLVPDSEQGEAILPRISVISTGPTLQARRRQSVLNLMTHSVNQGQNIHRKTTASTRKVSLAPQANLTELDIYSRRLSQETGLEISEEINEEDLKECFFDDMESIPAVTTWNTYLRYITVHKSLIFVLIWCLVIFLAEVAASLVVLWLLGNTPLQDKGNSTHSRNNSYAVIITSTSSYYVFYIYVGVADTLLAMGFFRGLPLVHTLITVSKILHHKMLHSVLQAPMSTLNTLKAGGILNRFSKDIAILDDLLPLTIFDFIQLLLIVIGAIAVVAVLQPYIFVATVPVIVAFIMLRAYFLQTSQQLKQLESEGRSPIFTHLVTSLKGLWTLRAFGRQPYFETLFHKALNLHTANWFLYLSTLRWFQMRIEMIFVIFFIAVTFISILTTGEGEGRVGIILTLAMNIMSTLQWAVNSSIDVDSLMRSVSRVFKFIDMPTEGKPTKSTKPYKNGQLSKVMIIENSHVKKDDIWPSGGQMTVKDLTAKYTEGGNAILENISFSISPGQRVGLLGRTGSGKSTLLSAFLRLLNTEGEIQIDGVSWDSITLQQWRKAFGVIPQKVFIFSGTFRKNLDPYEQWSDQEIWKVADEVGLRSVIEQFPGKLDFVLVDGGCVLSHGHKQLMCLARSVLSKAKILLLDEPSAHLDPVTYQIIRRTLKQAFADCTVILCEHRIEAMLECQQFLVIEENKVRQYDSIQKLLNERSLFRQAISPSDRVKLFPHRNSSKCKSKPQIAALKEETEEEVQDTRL

Row | Molecule | pull-down of cellular CFTR, electrophoresis pattern (mature band C)
1 | B1 | identical electrophoresis pattern as observed in whole cell lysate
2 | B2 | identical electrophoresis pattern as observed in whole cell lysate
3 | B3 | also observed
4 | B4 | identical electrophoresis pattern as observed in whole cell lysate
5 | B5 | also observed

Molecular target: T1, purified human CFTR (wt-CFTR) (Homo sapiens, UniProt P13569)
T1 construct: His10-SUMO* (N); FLAG; EGFP (C); made in house; host or cells: HEK 293 cell line D165
Test: Full-length CFTR ELISA
Assay type: binding
Details: immobilized CFTR, nanobodies titrated
Procedure: Strep-Tactin XT coated microplate (iba Life Science) was coated overnight at 4° C. with Twin-Strep-tagged nanobodies (5 μg/ml). Plate was blocked with 4% milk for 2 h at RT. Then different concentrations of CFTR (10^−10 to 10^−8 M) were incubated for 2 h at 4° C. CFTR binding was detected with monoclonal antibodies L12B4, MM13, 154, 660, 570, 596 specific to CFTR obtained from the CFTR Antibody Distribution Program (http://cftrantibodies.web.unc.edu/available-antibodies)46 and then anti-mouse-HRP antibody (Millipore, catalogue number: AP308P, 0.5 μg/ml) for 1 h 30 min at 4° C. For Bmax determination Pierce Nickel Coated Plate (ThermoScientific) was coated 1 h at 4° C. with CFTR (8 μg/ml). Plate was blocked with 4% milk for 2 h at 4° C. Then different concentrations of nanobodies (10^−9 to 10^−6 M) were incubated for 2 h at 4° C. Nanobody binding was detected with Myc-tag specific antibody (Sigma, catalogue number: C3956, 0.5 μg/ml) and then anti-rabbit-HRP antibody (Cell Signaling, catalogue number: 7074S, 1:1000 dilution) for 1 h 30 min at 4° C. Between each step wells were washed 3 times by aspiration with 50 mM HEPES pH 7.5, 150 mM NaCl, 10% glycerol, 2 mM ATP, 2.5 mM MgCl2, 0.01% DMNG (Anatrace). Incubations were performed in the same buffer with 0.4% milk. Reaction was visualized by using 1-Step Ultra TMB-ELISA (ThermoScientific) and stopped with H2SO4 (500 mM final). Absorbance was measured at 450 nm using SynergyMx (BioTek).
Affinity constants (KD) and thermodynamic parameters from ITC experiments were determined using one-site binding model with MicroCal Origin 7.0 software (Origin Lab Corp.). Dose response ELISA curves of each Nb binding to either isolated NBD1 or purified FL-CFTR were fitted using the sigmoidal dose-response equation from GraphPad Prism 3. DSC data were analyzed with the MicroCal Origin 7.0 software (Origin Lab Corp.), from which the unfolding temperature (Tm) was obtained.

T1 sequence (P13569 whole entry): as above

Row | Molecule | Bmax
6 | B2 | about 50 % of T2a maximum signal
7 | B4 | ~30 % of T2a maximum signal

Same assay, conditions: nanobodies immobilized, purified FL-CFTR titrated

Row | Molecule | binding of purified FL-CFTR
8 | B1 | bind with high affinity
9 | B2 | bind with high affinity
10 | B4 | bind with high affinity

Molecular target: T2, F508del-CFTR (Homo sapiens, UniProt P13569, DEL508-508)
T2 construct: expressed in transfected cells
Test: HS-YFP quenching assay
Assay type: cell-based
Details: HEK293T F508del-CFTR + HS-YFP, 10 μM forskolin and 3 μM VX770, 3 μM VX809 or DMSO 24 h
Procedure: To study CFTR function in cells, we used a HS-YFP quenching assay where changes in fluorescence of halide sensitive YFP (HS-YFP) reflect halide entrance through CFTR. HEK293T cells stably expressing F508del-CFTR (or WT CFTR as a control) and a modified YFP were transiently transfected with pcDNA3-based plasmid coding either for a stabilizing nanobody (T2a, D12 or T27) or a control nanobody (not binding F508del-CFTR) and incubated with 3 μM VX809 corrector or 0.06% DMSO for 24 h. Before addition of iodide, cells are stimulated by 10 μM forskolin and 3 μM VX770 potentiator for 20 mins and YFP fluorescence signal is measured (excitation 485, emission 535 nm) over a period of 4 seconds.
The assay was performed as described previously in (Ensinck, et al. 2020) with minor modifications. Briefly, cells stably expressing wt- or F508del-CFTR and a halide sensitive yellow fluorescent protein (HS-YFP) (Galietta, et al. 2001) were transfected with plasmids encoding the nanobodies using PEI and immediately plated into black, clear-bottomed 96-well plates coated with Poly-D-Lysine. After overnight incubation VX-809 (3 μM) or DMSO was added for 24 h. Next, the cells were washed with DPBS and potentiator VX-770 (3 μM) and/or CFTR activator forskolin (#F3917, Sigma-Aldrich, 10 μM) was added for 20 min. Fluorescence was measured after which a I^− buffer (137 mM Nal, 2.7 mM KI, 1.7 mM KH2PO4, 10.1 mM Na2HPO4, 5 mM D-glucose) was injected into the well and fluorescence monitored for another 4 s. YFP quenching was determined at the end of the interval as F/F0, and CFTR function as 1-(F/F0).

T2 sequence (P13569 with tags, fused parts or gaps DEL508-508): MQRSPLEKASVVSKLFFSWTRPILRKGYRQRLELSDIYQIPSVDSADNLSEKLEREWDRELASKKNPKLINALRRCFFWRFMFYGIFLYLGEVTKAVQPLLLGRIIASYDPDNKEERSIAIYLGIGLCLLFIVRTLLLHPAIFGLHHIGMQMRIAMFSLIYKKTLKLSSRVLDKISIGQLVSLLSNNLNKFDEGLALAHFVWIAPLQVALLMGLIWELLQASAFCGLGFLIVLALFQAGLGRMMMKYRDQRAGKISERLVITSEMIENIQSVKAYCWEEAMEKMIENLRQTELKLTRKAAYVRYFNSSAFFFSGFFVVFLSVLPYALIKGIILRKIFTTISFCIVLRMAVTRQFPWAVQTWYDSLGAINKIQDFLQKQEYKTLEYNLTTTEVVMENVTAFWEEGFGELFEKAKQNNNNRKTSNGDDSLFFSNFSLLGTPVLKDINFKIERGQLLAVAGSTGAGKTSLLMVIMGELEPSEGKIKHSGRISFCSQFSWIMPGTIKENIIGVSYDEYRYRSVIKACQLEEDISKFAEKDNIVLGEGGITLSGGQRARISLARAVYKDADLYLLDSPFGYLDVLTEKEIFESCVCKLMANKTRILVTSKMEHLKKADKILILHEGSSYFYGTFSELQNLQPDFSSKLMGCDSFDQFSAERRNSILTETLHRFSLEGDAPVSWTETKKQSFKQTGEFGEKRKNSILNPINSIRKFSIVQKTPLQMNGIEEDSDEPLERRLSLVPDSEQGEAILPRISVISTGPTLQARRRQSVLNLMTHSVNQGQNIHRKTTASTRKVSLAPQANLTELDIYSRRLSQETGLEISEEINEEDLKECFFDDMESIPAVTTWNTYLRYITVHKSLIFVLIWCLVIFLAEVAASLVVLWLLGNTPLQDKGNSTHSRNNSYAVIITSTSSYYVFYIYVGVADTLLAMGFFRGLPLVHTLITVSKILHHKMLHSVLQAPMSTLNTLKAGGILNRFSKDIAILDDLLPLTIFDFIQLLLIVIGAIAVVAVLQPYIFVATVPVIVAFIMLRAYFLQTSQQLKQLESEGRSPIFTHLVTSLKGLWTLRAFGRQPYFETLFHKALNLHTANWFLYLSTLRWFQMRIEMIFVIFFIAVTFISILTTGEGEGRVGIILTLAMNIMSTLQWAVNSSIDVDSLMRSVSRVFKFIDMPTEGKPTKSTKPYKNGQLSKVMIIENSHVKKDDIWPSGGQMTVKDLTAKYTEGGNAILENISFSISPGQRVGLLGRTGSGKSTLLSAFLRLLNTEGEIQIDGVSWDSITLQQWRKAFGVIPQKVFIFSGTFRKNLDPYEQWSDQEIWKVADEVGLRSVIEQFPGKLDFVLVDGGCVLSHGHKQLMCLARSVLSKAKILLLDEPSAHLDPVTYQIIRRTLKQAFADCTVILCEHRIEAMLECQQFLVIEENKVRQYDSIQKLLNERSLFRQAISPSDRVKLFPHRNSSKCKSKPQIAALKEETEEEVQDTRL

Row | Molecule | quenching of YFP (CFTR function)
11 | B1 | quenching of YFP
12 | B3 | quenching of YFP
13 | B5 | quenching of YFP
